Measurements as given in patent publication US20170044545, “APTAMER FOR BONDING TO AUTOTAXIN AND INHIBITING BIOLOGICAL ACTIVITY OF AUTOTAXIN, AND USE FOR SAME” (RIBOMIC INC., published 2017).

B1: SEQ 16(50) (mixed)
RNA: UCUGAGGGAAACAGGUUUUGCUCCUCGGA
modifications: 2'-deoxy G8,G14,G15,C23,C26; 2'-OMe G4,A5,G6,G7,A9,A11,A13,G20,G27,G28,A29; 2'-OH A10; other pyrimidines 2'-F; 5' 80 kDa PEG (GL2-800GS2)-ssH linker; 3' idT
B2: SEQ 16(51) (mixed)
RNA: UCUGAGGGAAACAGGUUUUGCUCCUCGGA
modifications: 2'-deoxy G8,G14,G15,C23,C26; 2'-OMe G4,A5,G6,G7,A9,A11,A13,G20,G27,G28,A29; 2'-OH A10 with PS; other pyrimidines 2'-F; 5' 80 kDa PEG (GL2-800GS2)-ssH linker; 3' idT
B3: SEQ 16(61) (mixed)
RNA: UCUGAGGGAAACAGGUUUUGCUCCUCGGA
modifications: dT1; 2'-deoxy G8,G14,G15,C23,C26; 2'-OMe G4,A5,G6,G7,A9,A11,A13,U17,G20,G27,G28,A29; 2'-OH A10 with PS; other pyrimidines 2'-F; 5' and 3' idT
B4: SEQ 16(62) (mixed)
RNA: UCUGAGGGAAACAGGUUUUGCUCCUCGGA
modifications: dT1; 2'-deoxy G8,G14,G15,C23,C26; 2'-OMe G4,A5,G6,G7,A9,A11,A13,U18,G20,G27,G28,A29; 2'-OH A10 with PS; other pyrimidines 2'-F; 5' and 3' idT
B5: SEQ 16(63) (mixed)
RNA: UCUGAGGGAAACAGGUUUUGCUCCUCGGA
modifications: dT1; 2'-deoxy G8,G14,G15,C23,C26; 2'-OMe G4,A5,G6,G7,A9,A11,A13,G20,G27,G28,A29; 2'-OH A10 with PS; other pyrimidines 2'-F; 5' 40 kDa PEG (GL2-400GS2)-ssH linker; 3' idT
B6: SEQ 16(64) (mixed)
RNA: UCUGAGGGAAACAGGUUUUGCUCCUCGGA
modifications: dT1; 2'-deoxy G8,G14,G15,C23,C26; 2'-OMe G4,A5,G6,G7,A9,A11,A13,G20,G27,G28,A29; 2'-OH A10 with PS; other pyrimidines 2'-F; 5' 80 kDa PEG (GL4-800GS2)-ssH linker; 3' idT
B7: SEQ 16(66) (mixed)
RNA: UCUGAGGGAAACAGGUUUUGCUCCUCGGA
modifications: dT1; 2'-deoxy G8,G14,G15,C23,C26; 2'-OMe C2,U3,G4,A5,G6,G7,A9,A11,A13,G20,U22,C24,U25,G27,G28,A29; 2'-OH A10 with PS; other pyrimidines 2'-F; 5' 40 kDa PEG (GL2-400GS2)-ssH linker; 3' idT
B8: SEQ 16(67) (mixed)
RNA: UCUGAGGGAAACAGGUUUUGCUCCUCGGA
modifications: dT1; 2'-deoxy G8,G14,G15,C23,C26; 2'-OMe C2,U3,G4,A5,G6,G7,A9,A11,A13,G20,C21,U22,C24,U25,G27,G28,A29; 2'-OH A10 with PS; other pyrimidines 2'-F; 5' 80 kDa PEG (GL2-800GS2)-ssH linker; 3' idT
B9: SEQ 16(52) (mixed)
RNA: UCUGAGGGAAACAGGUUUUGCUCCUCGGA
modifications: dT1; 2'-deoxy G8,G14,G15; 2'-OMe G4,A5,G6,G7,A9,A11,A13,G20,G27,G28,A29; 2'-OH A10; other pyrimidines 2'-F; 5' 80 kDa PEG (GL2-800GS2)-ssH linker; 3' idT
B10: SEQ 16(53) (mixed)
RNA: UCUGAGGGAAACAGGUUUUGCUCCUCGGA
modifications: dT1; 2'-deoxy G8,G14,G15; 2'-OMe G4,A5,G6,G7,A9,A11,A13,G20,G27,G28,A29; 2'-OH A10 with PS; other pyrimidines 2'-F; 5' 80 kDa PEG (GL2-800GS2)-ssH linker; 3' idT
B11: SEQ 16(54) (mixed)
RNA: UCUGAGGGAAACAGGUUUUGCUCCUCGGA
modifications: dT1,dC2,dT3; 2'-deoxy G8,G14,G15,C23,C24,C26; 2'-OMe G4,A5,G6,G7,A9,A11,A13,G20,G27,G28,A29; 2'-OH A10 with PS; other pyrimidines 2'-F; 5' 80 kDa PEG (GL2-800GS2)-ssH linker; 3' idT
B12: SEQ 16(56) (mixed)
RNA: UCUGAGGGAAACAGGUUUUGCUCCUCGGA
modifications: dT1; 2'-deoxy G8,G14,G15,C23,C26; 2'-OMe G4,A5,G6,G7,A9,A11,A13,G20,C24,U25,G27,G28,A29; 2'-OH A10 with PS; other pyrimidines 2'-F; 5' and 3' idT
B13: SEQ 16(57) (mixed)
RNA: UCUGAGGGAAACAGGUUUUGCUCCUCGGA
modifications: dT1; 2'-deoxy G8,G14,G15,C23,C26; 2'-OMe G4,A5,G6,G7,A9,A11,A13,G20,U22,G27,G28,A29; 2'-OH A10 with PS; other pyrimidines 2'-F; 5' and 3' idT
B14: SEQ 16(58) (mixed)
RNA: UCUGAGGGAAACAGGUUUUGCUCCUCGGA
modifications: dT1; 2'-deoxy G8,G14,G15,C23,C26; 2'-OMe G4,A5,G6,G7,A9,A11,A13,G20,C21,G27,G28,A29; 2'-OH A10 with PS; other pyrimidines 2'-F; 5' and 3' idT
B15: SEQ 16(59) (mixed)
RNA: UCUGAGGGAAACAGGUUUUGCUCCUCGGA
modifications: dT1; 2'-deoxy G8,G14,G15,C23,C26; 2'-OMe G4,A5,G6,G7,A9,A11,A13,U16,G20,G27,G28,A29; 2'-OH A10 with PS; other pyrimidines 2'-F; 5' and 3' idT
B16: SEQ 16(60) (mixed)
RNA: UCUGAGGGAAACAGGUUUUGCUCCUCGGA
modifications: dT1; 2'-deoxy G8,G14,G15,C23,C26; 2'-OMe G4,A5,G6,G7,A9,A11,A13,U19,G20,G27,G28,A29; 2'-OH A10 with PS; other pyrimidines 2'-F; 5' and 3' idT
B17: SEQ 9 clone (ssRNA)
RNA: GGGUGGCAACAGGACAUGGAACGCGCCCCAACUGCUUGAAACUGGUUUUGCUGAGCAGUGAUGUGAGAUGCGUCUUCGUAC
modifications: 2'-F pyrimidines, 2'-OH purines
B18: SEQ 16(21) (mixed)
RNA: UCUGAGGGAAACAGGUUUUGCUCCUCGGA
modifications: 2'-F all pyrimidines; 2'-OMe G4 A5 G6 G7 A9 A11 A13 G20 G27 G28 A29; 2'-OH A10; dG8 dG14 dG15; 5' and 3' idT
B19: SEQ 4 aptamer (ssRNA)
RNA: GGGACCGCACUCUAAACGCUCUGAGGGAAACAGGUUUUGCUCCUCGGAGCGUGGACGAAGUGAGACGUAUCCG
modifications: 2'-F pyrimidines, 2'-OH purines

These binders were tested against T1, Autotaxin (ENPP2, NPP2) (Homo sapiens, UniProt Q13822 Q13822:36-863) (assay: inhibition; listing sequence lacks U7 printed in text). Settings: not given.

Binder	IC50 [nM]
UCUGAGUGAAACAGGUUUUGCUGCUCGGA (ssRNA, 2'-F pyrimidines, 2'-OH purines [2'-F at all C and U; A and G 2'-OH]) [SEQ 48]	44

The binders below were run against T1, Autotaxin (ENPP2, NPP2) (assay: inhibition; NPP2 assay, pNP-TMP substrate, solution A (Ca, Mg), 37 C). Settings: not given.

Binder	IC50 [nM]
B1	12
B2	2.8
B3	23
B4	23
B5	0.8
B6	1.3
B7	0.7
B8	0.6
B9	9.4
B10	2.7
B11	2.3
B12	0.2
B13	0.3
B14	0.6
B15	16
B16	23

What follows are binders tested against T1, Autotaxin (ENPP2, NPP2) (assay: inhibition; text prints 3' CCUGGA, listing ccucgga). Settings: not given.

Binder	IC50 [nM]
UCUGAGGGAAACAGGUUCUGCUCCUCGGA (ssRNA, 2'-F pyrimidines, 2'-OH purines) [SEQ 46]	50

The binders below were run against T1, Autotaxin (ENPP2, NPP2) (assay: SPR; not more than 10% of SEQ 4). Settings: not given.

Binder	binding result
GGGAAACAGGUUUUGCUCC (ssRNA, 2'-F pyrimidines, 2'-OH purines) [SEQ 22]	no binding
GGAAACAGGUUUUGCUC (ssRNA, 2'-F pyrimidines, 2'-OH purines) [SEQ 23]	no binding
B17	no binding

The binders below were run against T1, Autotaxin (ENPP2, NPP2) (assay: inhibition). Settings: not given.

Binder	IC50 [nM]
GGGAAACAGGUUUUGCUCC (ssRNA, 2'-F pyrimidines, 2'-OH purines) [SEQ 22]	950
UCUGAGGGAACAGGUUUUGCUCCUCGGA (ssRNA, 2'-F pyrimidines, 2'-OH purines) [SEQ 37]	720
UCUGAGGGAAACAGGUUUUGCUCCUCGGA (mixed, as 16(22) with 5' 40 kDa PEG (GL2-400GS2)-ssH linker instead of 5' idT) [SEQ 16(23)]	1.1
UCUGAGGGAAACAGGUUUUGCUCCUCGGA (mixed, as 16(4) with dT16) [SEQ 16(19)]	51
UCUGAGGGAAACAGGUUUUGCUCCUCGGA (mixed, as 16(4) with dC12) [SEQ 16(20)]	44
B18	2.2
UCUGAGGGAAACAGGUUUUGCUCCUCGGA (mixed, as 16(21) with PS at A10) [SEQ 16(22)]	0.5
UCUGAGGGAAACAGGUUUUGCUCCUCGGA (mixed, as 16(21) with 5' 40 kDa PEG (GL2-400GS2)-ssH linker instead of 5' idT) [SEQ 16(24)]	7.4
UCUGAGGGAAACAGGUUUUGCUCCUCGGA (mixed, as 16(21) with dT1 dC2 dT3) [SEQ 16(25)]	2.3
UCUGAGGGAAACAGGUUUUGCUCCUCGGA (mixed, as 16(21) with dC26) [SEQ 16(26)]	2.1
UCUGAGGGAAACAGGUUUUGCUCCUCGGA (mixed, as 16(21) with dT25) [SEQ 16(27)]	3.2
UCUGAGGGAAACAGGUUUUGCUCCUCGGA (mixed, as 16(21) with dC24) [SEQ 16(28)]	2.7
UCUGAGGGAAACAGGUUUUGCUCCUCGGA (mixed, as 16(21) with dC23) [SEQ 16(29)]	3.3
UCUGAGGGAAACAGGUUUUGCUCCUCGGA (mixed, as 16(21) with ssH linker instead of 5' idT) [SEQ 16(30)]	4.4
UCUGAGGGAAACAGGUUUUGCUCCUCGGA (mixed, as 16(22) with ssH linker instead of 5' idT) [SEQ 16(31)]	0.8
UCUGAGGGAAACAGGUUUUGCUCCUCGGA (mixed, as 16(21) with dT1 dC2 dT3 dC23 dC24 dC26) [SEQ 16(32)]	1.4

These binders were tested against T1, Autotaxin (ENPP2, NPP2) (assay: SPR). Settings: not given.

Binder	binding result
UCUGAGGGAUACAGGUAUUGCUCCUCGGA (ssRNA, 2'-F pyrimidines, 2'-OH purines) [SEQ 27]	no binding
UCUGAGGGAAUCAGGAUUUGCUCCUCGGA (ssRNA, 2'-F pyrimidines, 2'-OH purines) [SEQ 28]	no binding
UCUGAGGGAAGCAGGUUUUGCUCCUCGGA (ssRNA, 2'-F pyrimidines, 2'-OH purines) [SEQ 35]	no binding
UCUGAGGGAAACAGGUUUGCUCCUCGGA (ssRNA, 2'-F pyrimidines, 2'-OH purines) [SEQ 36]	no binding
UCUGAGGGAACAGGUUUUGCUCCUCGGA (ssRNA, 2'-F pyrimidines, 2'-OH purines) [SEQ 37]	no binding

These binders were tested against T1, Autotaxin (ENPP2, NPP2) (assay: inhibition; pNP-TMP 1 mM, autotaxin 0.3 nM, 37 C 24 h, solution A). Settings: not given.

Binder	IC50 [nM]
B19	7

What follows are binders tested against FGF2 (UniProt P09038 P09038:135-288) (assay: SPR; FGF2 immobilized about 1100 RU; specificity control). Settings: tags: PeproTech.
Protocol: Whether the nucleic acids of SEQ ID NOs: 8 and 9 bind to autotaxin was evaluated by the surface plasmon resonance method. For the measurement, Biacore T100 manufactured by GE Healthcare was used, and the measurement was performed by the method shown below. About 2700 RU autotaxin was immobilized on a sensorchip surface of CM4 chip by using an amino coupling kit. The flow rate was 20 μL/min, and nucleic acids (20 μL) prepared to 0.3 μM were injected as an analyte. As a running buffer, solution A was used. In Table 1, nucleic acids showing a binding amount of not more than 10% of that of the aptamer of SEQ ID NO: 4 were considered not binding and marked with (−), and ones not less than that were considered binding and marked with (+).
Whether the aptamer shown in SEQ ID NO: 16(23) has a binding activity to FGF2 (PeproTech) was confirmed by the surface plasmon resonance method. Autotaxin was immobilized on a flow cell 2 and FGF2 was immobilized on a flow cell 3 (about 1100 RU), and the aptamer was injected. The rest was performed similarly to Example 2.

Chain of FGF2 (P09038 135-288, one chain of several): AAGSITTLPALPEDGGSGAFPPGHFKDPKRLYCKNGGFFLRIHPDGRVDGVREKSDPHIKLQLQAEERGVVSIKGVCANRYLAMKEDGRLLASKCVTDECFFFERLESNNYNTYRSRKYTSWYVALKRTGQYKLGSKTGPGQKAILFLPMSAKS

Binder	binding result
UCUGAGGGAAACAGGUUUUGCUCCUCGGA (mixed, as 16(22) with 5' 40 kDa PEG (GL2-400GS2)-ssH linker instead of 5' idT) [SEQ 16(23)]	no binding
